Legend:
Format in all cases: cell-based
GβGγ dimer = biological target: T1, GβGγ dimer (Homo sapiens, UniProt P59768+P62873); assay: Polarization microscopy of probe in HEK293 cells, with or without cotransfected GβGγ dimer; conditions: cotransfection of plasmids encoding the, excitation polarization resolved single-photon confocal microscopy
T1 construct: expressed in transfected cells; host or cells: HEK293
Protocol: (§1) Prior to microscopy observations, mammalian cells (HEK293) were cultured at 37° C. under an atmosphere of 95% air, 5% CO2, in Dulbecco's modified Eagle's medium with Glutamax I and high glucose (Life Technologies), supplemented with 10% fetal bovine serum. Cells were plated on 8-chamber microscopy slides (p-Slides, Ibidi GmbH, Germany). Transfections were carried out using 0.2 μg of plasmid DNA and Lipofectamine 2000 (Life Technologies), according to the protocol of the manufacturer. In cotransfections, 0.2 μg of each of the plasmids were used. Microscopy experiments were carried out 48 h after transfection. […]
(§2) In excitation polarization resolved single-photon laser scanning confocal microscopy, the cells (in the multi-well cover slip) were observed using a single-photon laser scanning confocal microscope Olympus FV1200, modified for excitation-polarization resolved microscopy. […] Fluorescence of wavelengths in the range of 510-610 nm was separated from the excitation light by a long-pass dichroic mirror (DM405/488, Olympus, Japan), diffractive grating, and an adjustable slit, and detected by a photomultiplier. […]
(§3) The resulting images were deconvolved and quantitatively analyzed by following published procedures (Bondar A & al., Communications Biology. 2021 Feb. 12; 4(1):1-2.) that rely on publicly available software tools. […]

[1] = biological target: T2, activated form of the insulin receptor 1 (Homo sapiens, UniProt P06213); assay: Polarization microscopy of probe in HEK293 cells, insulin receptor 1 activated by serum insulin; conditions: cotransfection of insulin receptor 1 plasmid, activated by 5% fetal bovine serum containing natural levels of insulin, excitation polarization resolved single-photon confocal microscopy
T2 construct: His tag (named His6); expressed in transfected cells; host or cells: HEK293
Protocol: as §1, §2, §3

[2] = biological target: T3, activated form of the G-protein Gαi1 (Gαi1(Q204L)) (Homo sapiens, UniProt P63096, Q204L); assay: Polarization microscopy of probe in HEK293 cells, with or without cotransfected constitutively activated Gαi1(Q204L); conditions: cotransfection of Gαi1(Q204L) plasmid
T3 construct: expressed in transfected cells; host or cells: HEK293
From the text: A protein (SEQ ID NO:5) that includes as an anchoring moiety a fragment of the protein h-Ras, a flexible peptide linker (amino acid sequence GSGGSGG (SEQ ID NO:1)), a monomeric enhanced green fluorescent protein (meGFP) as a fluorescent moiety, and an affinity binding peptide KB1753 known to bind the activated form of the G-protein Gαi1 (Johnston C A & al., Structure. 2005 Jul. 1; 13(7):1069-80), was encoded into a DNA sequence (SEQ ID NO:6) and cloned into a mammalian expression vector (pcDNA3.1(+)) under the control of the cytomegalovirus (CMV) promoter. The resulting DNA encoding the probe of invention was transfected into HEK293 cells either alone, or along with DNA encoding the target protein of the probe.
Prior to microscopy observations, mammalian cells (HEK293) were cultured at 37° C. under an atmosphere of 95% air, 5% CO2, in Dulbecco's modified Eagle's medium with Glutamax I and high glucose (Life Technologies), supplemented with 10% fetal bovine serum. Cells were plated on 8-chamber microscopy slides (p-Slides, Ibidi GmbH, Germany). Transfections were carried out using 0.2 μg of plasmid DNA and Lipofectamine 2000 (Life Technologies), according to the protocol of the manufacturer. In cotransfections, 0.2 μg of each of the plasmids were used. Microscopy experiments were carried out 48 h after transfection. Microscopy observations were performed at 37° C., maintained by a heated chamber (iBidi Heating System, iBidi).
The cells were observed by excitation polarization resolved single-photon laser scanning confocal microscopy, by excitation polarization resolved two-photon laser scanning microscopy, by excitation polarization resolved single-photon wide-field fluorescence microscopy, and by fluorescence polarization resolved single-photon laser scanning confocal microscopy.
In excitation polarization resolved single-photon laser scanning confocal microscopy, the cells (in the multi-well cover slip) were observed using a single-photon laser scanning confocal microscope Olympus FV1200, modified for excitation-polarization resolved microscopy. Specifically, the excitation laser beam was passed through an electrooptical polarization modulator (RPM-2P, Innovative Bioimaging, USA) synchronized with the function of the microscope so that the direction of polarization of the laser light was alternated between horizontal and vertical direction (within the image) between acquisition of individual pixels of the image. In order to observe the probes of invention containing the green fluorescent protein (GFP), 488 nm wavelength was used for excitation. Fluorescence of wavelengths in the range of 510-610 nm was separated from the excitation light by a long-pass dichroic mirror (DM405/488, Olympus, Japan), diffractive grating, and an adjustable slit, and detected by a photomultiplier. The samples were imaged by a 40× water immersion lens (UApoN340, NA1.15. Olympus, Japan).
The resulting images were deconvolved and quantitatively analyzed by following published procedures (Bondar A & al., Communications Biology. 2021 Feb. 12; 4(1):1-2.) that rely on publicly available software tools. Briefly, an acquired image, containing in different pixels information on fluorescence intensity excited with distinct polarizations of excitation light was deconvolved into two images, each containing fluorescence intensity excited by one polarization of the excitation light. After background subtraction, an image was generated to show, in each pixel, the base 2 logarithm of the ratio between the values of the corresponding pixels of the images containing information on fluorescence intensity excited with a horizontal and vertical polarization of excitation light. The resulting image was segmented to identify parts that correspond to the cell membrane. […]

[3] = biological target: T4, activated form of the μ-opioid receptor (Homo sapiens, UniProt P35372); assay: Polarization microscopy of probe in HEK293 cells, μ-opioid receptor activated by DAMGO; conditions: cotransfection of μ-opioid receptor plasmid and 10 μM DAMGO, excitation polarization resolved single-photon confocal microscopy
T4 construct: expressed in transfected cells; host or cells: HEK293
Protocol: as §1, §2, §3

[4] = biological target: T5, activated form of the G-protein Gα13 (Gα13(Q226L)) (Homo sapiens, UniProt Q14344, Q226L); assay: Polarization microscopy of probe in HEK293 cells, with or without cotransfected Gα13(Q226L); conditions: cotransfection of Gα13(Q226L) plasmid, excitation polarization resolved single-photon confocal microscopy
T5 construct: expressed in transfected cells; host or cells: HEK293
T5 sequence (Q14344 1-377 Q226L): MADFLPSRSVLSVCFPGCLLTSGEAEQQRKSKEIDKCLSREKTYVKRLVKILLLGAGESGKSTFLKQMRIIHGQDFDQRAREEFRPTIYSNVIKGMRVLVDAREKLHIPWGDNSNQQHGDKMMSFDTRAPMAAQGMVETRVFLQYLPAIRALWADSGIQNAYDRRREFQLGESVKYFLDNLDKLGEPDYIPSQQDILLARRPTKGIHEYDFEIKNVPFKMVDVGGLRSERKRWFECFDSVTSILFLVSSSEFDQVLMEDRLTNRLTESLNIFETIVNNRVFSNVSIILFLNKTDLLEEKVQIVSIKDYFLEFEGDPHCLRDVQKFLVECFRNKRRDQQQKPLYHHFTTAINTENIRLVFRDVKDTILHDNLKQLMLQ
Protocol: as §1, §2, §3

[5] = biological target: T6, activated form of the small GTPase Rac1 (Rac1(Q61L)) (Homo sapiens, UniProt P63000, Q61L); assay: Polarization microscopy of probe in HEK293 cells, with or without cotransfected Rac1(Q61L); conditions: cotransfection of Rac1(Q61L) plasmid, excitation polarization resolved single-photon confocal microscopy
T6 construct: expressed in transfected cells; host or cells: HEK293
Protocol: as §1, §2, §3

activated form of Gαi1 = biological target: T7, activated form of Gαi1 (Homo sapiens, UniProt P63096); assay: Polarization microscopy of probe in HEK293 cells, Gαi1 activated through the α2-adrenergic receptor by norepinephrine; conditions: HEK293 cells cotransfected with Gαi1, Gβ1, Gγ2 and α2-adrenergic receptor; 10 μM norepinephrine; excitation polarization resolved single-photon confocal microscopy
T7 construct: expressed in transfected cells; host or cells: HEK293
Protocol: as §1, §2, §3

[6] = biological target: T8, activated form of the β2-adrenergic receptor (Homo sapiens, UniProt P07550, E27Q/G16R); assay: Polarization microscopy of probe in HEK293 cells, β2-adrenergic receptor activated by norepinephrine; conditions: cotransfection of β2-adrenergic receptor plasmid and 10 μM norepinephrine, excitation polarization resolved single-photon confocal microscopy
T8 construct: expressed in transfected cells; host or cells: HEK293
Protocol: as §1, §2, §3

[7] = biological target: T9, activated form of the small GTPase RhoA (RhoA(Q63L)) (Homo sapiens, UniProt P61586, Q63L); assay: Polarization microscopy of probe in HEK293 cells, with or without cotransfected RhoA(Q63L); conditions: cotransfection of RhoA(Q63L) plasmid, excitation polarization resolved single-photon confocal microscopy
T9 construct: expressed in transfected cells; host or cells: HEK293
Protocol: as §1, §2, §3

[8] = system: activated form of the β2-adrenergic receptor; assay: Polarization microscopy of probe in HEK293 cells, β2-adrenergic receptor activated by norepinephrine; conditions: β2-adrenergic receptor is the probe's anchoring moiety, 10 uM norepinephrine, excitation polarization resolved single-photon confocal microscopy
Protocol: as §1, §2, §3

[9] = excitation polarization resolved single-photon laser scanning confocal microscopy

T3 sequence (P63096 whole entry Q204L): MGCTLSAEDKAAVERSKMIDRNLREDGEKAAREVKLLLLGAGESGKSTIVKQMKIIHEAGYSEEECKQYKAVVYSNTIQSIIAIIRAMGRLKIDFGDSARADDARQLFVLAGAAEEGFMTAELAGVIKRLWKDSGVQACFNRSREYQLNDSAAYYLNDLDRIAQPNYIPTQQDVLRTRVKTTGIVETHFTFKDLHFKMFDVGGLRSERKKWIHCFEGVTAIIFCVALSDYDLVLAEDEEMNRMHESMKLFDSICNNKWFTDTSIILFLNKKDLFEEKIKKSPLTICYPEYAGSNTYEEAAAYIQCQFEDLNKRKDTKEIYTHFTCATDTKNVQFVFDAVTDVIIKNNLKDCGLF
T4 sequence (P35372 whole entry): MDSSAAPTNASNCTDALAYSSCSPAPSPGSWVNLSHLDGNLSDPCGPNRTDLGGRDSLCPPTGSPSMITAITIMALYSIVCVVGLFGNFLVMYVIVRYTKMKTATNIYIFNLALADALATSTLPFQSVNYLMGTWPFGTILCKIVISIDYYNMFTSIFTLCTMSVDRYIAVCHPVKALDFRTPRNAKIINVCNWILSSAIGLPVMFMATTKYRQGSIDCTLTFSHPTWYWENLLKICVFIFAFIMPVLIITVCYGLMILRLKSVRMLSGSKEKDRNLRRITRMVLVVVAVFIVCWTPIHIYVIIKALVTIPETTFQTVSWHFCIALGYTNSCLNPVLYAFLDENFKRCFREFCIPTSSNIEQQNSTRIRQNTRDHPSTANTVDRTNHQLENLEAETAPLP
T1 sequence (P62873 2-340 limits assumed): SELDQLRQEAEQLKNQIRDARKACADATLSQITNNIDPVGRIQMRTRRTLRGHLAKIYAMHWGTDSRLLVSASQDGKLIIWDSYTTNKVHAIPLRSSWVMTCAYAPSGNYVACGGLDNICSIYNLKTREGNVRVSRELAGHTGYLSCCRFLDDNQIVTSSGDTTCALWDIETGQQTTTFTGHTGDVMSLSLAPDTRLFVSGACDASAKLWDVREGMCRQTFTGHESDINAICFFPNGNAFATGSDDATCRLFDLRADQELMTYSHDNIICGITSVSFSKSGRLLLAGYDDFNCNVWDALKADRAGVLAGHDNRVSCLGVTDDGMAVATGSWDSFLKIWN
T1 sequence (P59768 2-68 limits assumed): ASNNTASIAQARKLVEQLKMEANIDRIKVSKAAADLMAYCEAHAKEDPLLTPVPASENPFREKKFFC
T7 sequence (P63096 whole entry): as the sequence (P63096 whole entry Q204L) above, with L204Q counted along it
T9 sequence (P61586 whole entry Q63L): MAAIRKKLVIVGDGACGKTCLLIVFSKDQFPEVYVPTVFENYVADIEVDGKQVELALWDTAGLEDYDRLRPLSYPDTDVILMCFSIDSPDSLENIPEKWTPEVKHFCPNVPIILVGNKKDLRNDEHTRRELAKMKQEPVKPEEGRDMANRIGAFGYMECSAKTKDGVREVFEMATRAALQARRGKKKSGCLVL
T2 sequence (P06213 with tags, fused parts or gaps isoform P06213-2): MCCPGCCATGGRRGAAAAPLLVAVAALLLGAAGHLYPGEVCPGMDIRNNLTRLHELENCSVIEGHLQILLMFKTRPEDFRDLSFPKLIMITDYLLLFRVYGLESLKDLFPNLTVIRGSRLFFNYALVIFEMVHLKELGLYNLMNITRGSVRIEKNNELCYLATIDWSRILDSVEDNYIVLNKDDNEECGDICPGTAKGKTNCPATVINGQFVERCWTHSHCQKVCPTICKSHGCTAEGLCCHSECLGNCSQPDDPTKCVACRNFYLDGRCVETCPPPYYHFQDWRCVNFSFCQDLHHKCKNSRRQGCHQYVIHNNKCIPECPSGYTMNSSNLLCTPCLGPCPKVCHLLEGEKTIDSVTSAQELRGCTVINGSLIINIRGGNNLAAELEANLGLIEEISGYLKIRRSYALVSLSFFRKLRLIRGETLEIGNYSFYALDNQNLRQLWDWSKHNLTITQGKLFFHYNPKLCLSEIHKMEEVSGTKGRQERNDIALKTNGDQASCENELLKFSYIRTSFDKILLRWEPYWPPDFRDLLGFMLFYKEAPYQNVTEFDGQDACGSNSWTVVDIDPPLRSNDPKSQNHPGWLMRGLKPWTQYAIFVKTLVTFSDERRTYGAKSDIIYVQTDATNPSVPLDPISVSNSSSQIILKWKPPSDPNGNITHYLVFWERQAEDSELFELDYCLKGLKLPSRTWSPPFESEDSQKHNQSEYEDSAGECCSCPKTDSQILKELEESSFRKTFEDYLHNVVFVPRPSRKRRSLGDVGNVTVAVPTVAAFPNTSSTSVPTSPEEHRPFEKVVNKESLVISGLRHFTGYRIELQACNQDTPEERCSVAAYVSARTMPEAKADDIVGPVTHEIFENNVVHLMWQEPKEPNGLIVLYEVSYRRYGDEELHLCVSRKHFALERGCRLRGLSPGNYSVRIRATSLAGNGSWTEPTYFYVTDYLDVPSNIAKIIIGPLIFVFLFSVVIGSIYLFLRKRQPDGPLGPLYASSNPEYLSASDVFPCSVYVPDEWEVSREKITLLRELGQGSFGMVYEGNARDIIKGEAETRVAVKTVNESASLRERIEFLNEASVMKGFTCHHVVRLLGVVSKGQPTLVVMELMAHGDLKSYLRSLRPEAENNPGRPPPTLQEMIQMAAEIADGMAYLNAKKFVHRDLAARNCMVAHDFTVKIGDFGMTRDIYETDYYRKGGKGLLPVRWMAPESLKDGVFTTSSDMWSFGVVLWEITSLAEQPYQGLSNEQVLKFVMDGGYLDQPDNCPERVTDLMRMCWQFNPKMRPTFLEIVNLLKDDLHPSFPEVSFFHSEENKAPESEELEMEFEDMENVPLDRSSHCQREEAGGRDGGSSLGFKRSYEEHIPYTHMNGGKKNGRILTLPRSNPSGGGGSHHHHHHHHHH

GAP43-SSGSSGTG-meGFP-GRK2ct [Example 17]
linear dichroism of the fluorescent moiety of the probe in presence of its target molecule compared with absence (GβGγ dimer): statistically significantly lower

GAP43-SSGSSGTG-meGFP-IRS1 [Example 22]
linear dichroism of the fluorescent moiety of the probe in presence of its target molecule compared with absence [1]: statistically significantly lower

GAP43-SSGSSGTG-meGFP-KB1753 [Example 4]
linear dichroism of the fluorescent moiety of the probe in presence of its target molecule compared with absence [2, 9]: statistically significantly higher

GAP43-SSGSSGTG-meGFP-NB33 [Example 16]
linear dichroism of the fluorescent moiety of the probe in presence of its target molecule compared with absence [3]: statistically significantly lower

GAP43-SSGSSGTG-meGFP-PRGrh [Example 19]
linear dichroism of the fluorescent moiety of the probe in presence of its target molecule compared with absence [4]: statistically significantly lower

GAP43-SSGSSGTG-meGFP-Δ6-PAK1 [Example 21]
linear dichroism of the fluorescent moiety of the probe in presence of its target molecule compared with absence [5]: statistically significantly lower

IL4R-SSGSSGTG-meGFP-KB1753 [Example 5]
linear dichroism of the fluorescent moiety of the probe in presence of its target molecule compared with absence [2, 9]: statistically significantly higher

KB1753-cpmTurquoise2-GSGGSGG-hRas [Example 9]
linear dichroism of the fluorescent moiety of the probe in presence of its target molecule compared with absence [2, 9]: statistically significantly higher

KB1753-meGFP-GS24-hRas [Example 6]
linear dichroism of the fluorescent moiety of the probe in presence of its target molecule compared with absence [2, 9]: statistically significantly higher

KB1753-meGFP-GSGGSGG-hRas [Example 1]
linear dichroism of the fluorescent moiety of the probe in presence of its target molecule compared with absence ([2]; excitation polarization resolved single-photon confocal, two-photon and wide-field microscopy, FIG. 2A): statistically significantly higher | fluorescence polarization of the fluorescent moiety of the probe in presence of its target molecule compared with absence ([2]; fluorescence polarization resolved single-photon laser scanning confocal microscopy, FIG. 2A): statistically significantly higher | linear dichroism of the fluorescent moiety of the probe in presence of activated Gαi1 compared with absence (activated form of Gαi1): statistically significantly higher

KB1753-meGFP-GSGGSGG-kRas [Example 3]
linear dichroism of the fluorescent moiety of the probe in presence of its target molecule compared with absence [2, 9]: statistically significantly higher

NB33-meGFP-GSGGSGG-hRas [Example 15]
linear dichroism of the fluorescent moiety of the probe in presence of its target molecule compared with absence [3]: statistically significantly lower

NB80-meGFP-GSGGSGG-hRas [Example 13]
linear dichroism of the fluorescent moiety of the probe in presence of its target molecule compared with absence [6]: statistically significantly lower

rhotekin-meGFP-GSGGSGG-hRas [Example 20]
linear dichroism of the fluorescent moiety of the probe in presence of its target molecule compared with absence [7]: statistically significantly higher

β2AR-SSGSSGTG-meGFP-NB80 [Example 14]
linear dichroism of the fluorescent moiety of the probe in presence of its target molecule compared with absence [8]: statistically significantly higher

— patent US12618828B2, “Probe and method for detecting membrane-associated molecules in living cells” (priority 2021, dated 2026)
